Measured values from publication PMC4895691, “Suppressor of IKKɛ is an essential negative regulator of pathological cardiac hypertrophy” (Nature Communications, 2016).

Biological target: T1, Flag-tagged TBK1 (TANK-binding kinase 1), human, full length (human, UniProt Q9UHD2 1-729)
T1 construct: entire coding region cloned into the EcoRI and XhoI sites of pSicoR-Flag-C1; also called Flag-TBK1; pSicoR-Flag-TBK1; source: HEK293T, transfected, in lysate (co-IP); immunopurified from HEK293T and eluted with FLAG peptide (GST pull-down)
T1 sequence (looked up): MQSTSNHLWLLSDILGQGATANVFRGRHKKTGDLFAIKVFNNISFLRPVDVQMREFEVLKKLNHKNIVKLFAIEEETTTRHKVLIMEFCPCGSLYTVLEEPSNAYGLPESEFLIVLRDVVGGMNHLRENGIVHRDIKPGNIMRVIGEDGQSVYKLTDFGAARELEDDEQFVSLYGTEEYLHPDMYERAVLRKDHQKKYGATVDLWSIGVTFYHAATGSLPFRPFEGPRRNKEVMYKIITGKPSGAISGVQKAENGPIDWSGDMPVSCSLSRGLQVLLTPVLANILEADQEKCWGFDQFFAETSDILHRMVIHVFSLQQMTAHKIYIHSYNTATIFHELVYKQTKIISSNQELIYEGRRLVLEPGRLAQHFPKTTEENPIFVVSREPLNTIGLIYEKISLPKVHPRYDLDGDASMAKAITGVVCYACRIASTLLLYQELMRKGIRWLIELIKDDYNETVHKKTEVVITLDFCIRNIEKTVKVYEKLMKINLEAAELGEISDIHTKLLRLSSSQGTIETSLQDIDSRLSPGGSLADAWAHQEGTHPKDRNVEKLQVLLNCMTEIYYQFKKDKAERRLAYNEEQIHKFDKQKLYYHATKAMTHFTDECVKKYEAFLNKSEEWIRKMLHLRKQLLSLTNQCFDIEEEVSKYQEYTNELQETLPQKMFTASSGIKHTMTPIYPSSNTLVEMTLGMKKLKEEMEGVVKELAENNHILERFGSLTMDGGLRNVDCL
Assay: pull-down; GST-SIKE from E. coli on glutathione-sepharose 4B beads incubated 4 h at 4 °C with immunopurified Flag-TBK1 from HEK293T; washed with IP lysis buffer, eluted with 20 mM reduced glutathione; anti-FLAG blot; GST tag as negative control
Settings: both partners purified

B1: GST-SIKE fusion protein, human SIKE (natural protein, UniProt Q9BRV8 1-207, looked up)
chain: MSCTIEKILTDAKTLLERLREHDAAAESLVDQSAALHRRVAAMREAGTALPDQYQEDASDMKDMSKYKPHILLSQENTQIRDLQQENRELWISLEEHQDALELIMSKYRKQMLQLMVAKKAVDAEPVLKAHQSHSAEIESQIDRICEMGEVMRKAVQVDDDQFCKIQEKLAQLELENKELRELLSISSESLQARKENSMDTASQAIK
notes: Suppressor of IKKɛ (SIKE), human; human SIKE gene cloned into pGEX-4T-1; also called pGEX-4T-1-GST-SIKE; source: E. coli Rosetta (DE3), purified on glutathione-sepharose 4B beads
Question: Does B1 bind?
Answer: binds
